# From the nanobody polyreactivity screen of Harvey et al. (2022)
# Assay: yeast display, Sf9 membrane polyspecificity reagent, FACS + sequencing; frameworks hold sequencing errors
# Summary of the method: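 After 36–48 hours of galactose induction, yeast (Saccharomyces cerevisiae BJ5465) displaying a synthetic nanobody library were stained at 4 °C for 1 hour with 10% biotinylated, detergent-solubilized Sf9 membrane reagent. Streptavidin microbeads enriched the stained cells before FACS sorting into low and high (top ~1%) gates on anti-HA and streptavidin fluorescence. Each clone's polyreactivity label reflects its gate of origin.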
row,Sequence,polyreactivity (PSR sort gate)
1,QVQLVESGGGLVKAGGSLRLSCAASGSILGAYNMGWYRQAPGKERELVSAITRRGGSTYYADSVKGRFTISRDNAKNTVYLQMNSLNPEDTAVYYCNAEYGFWYDYLVVPYDYWGQGTQVTVSS,low polyreactivity
2,QVQLVESGGGLVKAGGSLRLSCAASGSTFDSYAMGWYRQPPGKERELVASITSNDGSTSYADSVKGRFTISRDNAKNTVYLQMNSLKPEDTAVYYCAASSLYSDYGHRNLADGPYDYWGQGTQVTVSS,low polyreactivity
3,QVQLVESGGGLVKAGGSLRLSCAASGSTFYSYVMGWYRQAPGKERELFAAISRRGGSTYYADSVKWRFTISSDNAKNTVYLQMNSLKPEDTAVYYCAASAPVAGYKYRYDYWGQGTQVTVSS,high polyreactivity
4,QVQLVESGGGLVKAGGSLRLSCAATGFTLSWYDMGWYRPAPGKERELVATISRGGITYYADSVKGRFTISRDNAKNTVYLQMNSLKPEDTAVYYCAADYRYGWYRYDYWGQGTQVTVSS,high polyreactivity
5,QVQLVESGGGLVKAGGSLRLSCAATGRIFTYMGWYRQARGKERELVAGISWRGTSTYYADSVKGRFTISRDNAKNSVYLQMNSLKPEDTAVYYCAARWAYHVRGDYWGQGTQVTVSS,low polyreactivity
6,QVQLVESGGGLVKAGGSLRLSCAAYGIIYYPYAMGRYRHAPGKEWELVAAIDRSGSSTYYADSVKGRFTISRDNAKNTVYVQMNSLKPEDTAVYYCAAAHTYFTAYGDYWGQGTQVTVSS,low polyreactivity
7,QVQLVESGGGLVKAGGSLRLSCAAYGITFIRYAMGWYRQAPGKERELVAVMTRSGGRTYYADSVKGRFTISRDNAKNTVYLQMNSLKPEDTAVYYCAARAYGYDEYEYWGQGTQVTVSS,high polyreactivity
8,QVQLVESGGGLVKAGGSLRLSRAASGSIFPRYAMGWNRQAPGKERELVAAITSSAASTYYADSVKGRFTISRDNAKNTVYLQMNSLKPEDSAVYYCAASGPWSYWYYYWGQGTQVTVSS,low polyreactivity
9,QVQLVESGGGLVKAGGSLRLSSAATGFIFAYYDMGWYRQAPGKERELVAAISSRGGTYYADSVKGRFTISRDNATITVYLKMNCLKPEDTAVYDCAAASYTWVSRGYEYWGQGTQVTVSS,high polyreactivity
10,QVQLVESGGGLVKEGGSLRLRCAASGRTFYVNAMGWSRQAPGKERELFASISSSGGSTYYADSVKGRFTSSRDNAKNTVYLQMNRLKPEDTEVYYCAKGYWPFWRGDRFYWGQGTQVTVSS,high polyreactivity
11,QVQLVESGGGLVKEGGSLRLSCAASGITFSWNAMGWYRQAPGKERELVAAISSSGGSTYYADSVKGRFTISRDYAKNTVYLLMNSLKPEDTAVYFCNADRFWFHWVYSRYHYDYWGQGTQVTVSS,high polyreactivity
12,QVQLVESGGGLVKEGGSLRLSCAASGSIFDWYVMGWYRQAPRKERELVATITRDGSTNYADSVKGRFTISRDNAKNTVYLQMNSLKPEDTAVYYCAAVIRSNRLYDGGYWGQGTQVTVSS,low polyreactivity
13,QVQLVESGGGLVLAGGILRLSCAASGSTFKRYAMGWYRQAPGKVRELVAAITWRGGSTYYADSVKGRFTISRDNAKNTVYLQMNSLKPEDTAVYYCAARANYFGWPKSYYYWGQGTQVTVSS,high polyreactivity
14,QVQLVESGGGLVLAGGSLRLRCAASGRIFGQYTMGWYRQAPGKERELVAAISRSSSSKYADSVKRRFTISRDNAKNTGYLQMNSLKPEDTAVYYCAAYVYYYGGRTYDYWGQGTQLTVSS,high polyreactivity
15,QVQLVESGGGLVLAGGSLRLSCAASGLILPYYTMGWYREAPGKERELVAAIRRTTGSTFYADSVKGRFTISRDNAKNTVYLQMNSLKPEDTAVYYCNVRRTPYRHWTGGGMDYWGQGTQVTVSS,high polyreactivity
16,QVQLVESGGGLVLAGGSLRLSCAASGRTFRYYTMGWFRPAPGKEREFVAAISSTGGTYYADSVKGRFTISRDNAKNTVYLQMNSLNPEDTAVYYCAATFIQVVVNVQLYDYDYWGQGTQVTVSS,low polyreactivity
17,QVQLVESGGGLVLAGGSLRLSCAASGRTFVPYAMGWYRQAPGKERELVAAMSQSGGRTYYTDSVKGRFTISGETAKNTVYLQMNSLNPEDTAVYYCAADVRSSIGHFTLYDYWGQGTQVTVSS,high polyreactivity
18,QVQLVESGGGLVLAGGSLRLSCAASGRTFVQYAMGWYRQAPGTERELVAAISDRGGNTYYADSVKGRFTISRDNAKNTVYLQMNSLKPDDTAVYYCAAKIALDNDYWGQGTQVTVSS,high polyreactivity
19,QVQLVESGGGLVLAGGSLRLSCAASGSIFYVYAMGWYRQAPGKERELVASITWSGGRTYYADSVKGRFTISRDNAKNTVYLQMNSLKPEDTAVYYCNAVSFGARTTSYRYGSCGQGTQVTVSS,high polyreactivity
20,QVQLVESGGGLVLAGGSLRLSCAASGSTFTRNAMGWYRQAPGKERELVATISSGGSTNYADSVKGRFTISRDNAKNTVYLQMNSLKPEDTAVYYCAKRSLYRYYYWGQGPQVTVSS,high polyreactivity
21,QVQLVESGGGLVLAGGSLSLSCAASGSTFIWNAMGWYRQAPGKERELVAAIRRGSSTNYADSVKGRFTISRDNAKNTVYLQMNSLKPEDTAVYYCAKKQVTTDVSSETFVLEMDYWGQGTQVTVSS,low polyreactivity
22,QVQLVESGGGLVPAGGSLRFSCAASGMTFFVNDRGSYRQAPGKERELLAVISFTGDSTFYADSVKGRFTISRDKAQNTVSLQMHSLKPEETAVYYSAADFRRGFSKYSYYLYFDFDYWGQGTQVTVSS,low polyreactivity

row,Sequence,polyreactivity (PSR sort gate)
1,QVQLVESGGGLVPAGGSLRLSCAASGFIILYYAMGWYRHEPGKERELVAAITTRGGRTYYADSVKGRFTISRDNAKNTVYLQMYSLKPEDTALYYCAADHLYWGLEDESWGQGTQVTVSS,low polyreactivity
2,QVQLVESGGGLVPAGGSLRLSCAASGIIFGTYAMGWYRQEPGKERELVAAIRRTGTGTYYADSVKGRFTISRDNAKNTVYLQMNSLKPEDTAVYYCNVVRSYAYDYWGQGTQVTVSS,high polyreactivity
3,QVQLVESGGGLVPAGGSLRLSCAASGRTFYYYAMGWYRQAPGKERELVAAIRRSGSSTYYADSVKGRFTISRDNAKNTVYLQMNSLKPEDTAVYYCAARPRRPRSNYWGQGTQVSVSS,high polyreactivity
4,QVQLVESGGGLVPAGGSLRLSCAASGSIFGKNAMGSYRQAPGNERELVAAITRRGGSTYYADSVKGRFTISRDNAKNTVYLQMNSLKAEDTAVYYCAAVSHYPAGYDYWGQGTQVTVSS,high polyreactivity
5,QVQLVESGGGLVPARGSLRLSCAASGNIFFVYDMGWYRQAPGKERELVAAISWSGGSTYADSVKGRFTISRDNGKNNVYLQMNSLKPEDTGVYYCAADVAYVEYDYWGQGSQVTVSS,low polyreactivity
6,QVQLVESGGGLVQAAGSLRLSCAASGLIFQNYPMGWYRQAPGKERELVARISRRGGSTYYADSVKGRFTISRDNAKNPVYLQMISLKQEDTAVYYCAAGWTRWTSKRFEYWGQGTQVTVSS,high polyreactivity
7,QVQLVESGGGLVQAAGSLRLSCAASGRTFKVYAMGWYRQAPGKERELVAAITWRGGRTYYADSVKGRFTISSDNAKNTVYLQMNSLKPEDTAVYDCAADLYYLTHDYWGQGTQVTVSS,high polyreactivity
8,QVQLVESGGGLVQAAGSLRLSCAASGSIFETYAMGWYRHAPGKERELVAAITQSGGSTYYADSVKGRFTISRDNAKNTVYLQMNSLKPEDTEVYYCAADLFVWWNWGYEYWGQGTQVTVSS,low polyreactivity
9,QVQLVESGGGLVQAAGSLRLSCAASGSIFFYNAMGWYRQAPGIERELVAAITGGGGRTYYADSVKGRFTISRDNAKNTVYLQMNSLKPEDTAVYYCNKDWAQPYDYWGQGTQVTVSS,high polyreactivity
10,QVQLVESGGGLVQAAGSLRLSCAASGSIFTYYAKGCYRQATRKERELVATINRIGGNTYDADSVKGRFTLSSDNAKNTVYLQMNRLKPEDNAVYYCAAKPTYRGYGYGSWGQGTQVTVSS,low polyreactivity
11,QVQLVESGGGLVQAAGSLRLSCAASGSTFGYNTMGWYRQAPGKERELVAGITYSGGRTYYADSVKGRFTISRDNAKNTVYLQMNSLKPADTAVYYCAALYGRGGYRNQPKSTTGMDYWGQGTQVTVSS,high polyreactivity
12,QVQLVESGGGLVQAAGSLRLSCAASGSTFQYYAMGWYRQAPGKERELVAAISASVDTTFYADSVKGRFTISRDNAKNTVYLQMNSLKPEDTAVYYCAKRYVDPLGSGTHGSWGQGTQVTVSS,low polyreactivity
13,QVQLVESGGGLVQAAGSLRLSCAASGYTSSVYAMGWYIQAHGKERELVAAISADGGSTYYADSVKGRFTISRDNAKNTVYLQMNSLKPEDTAVYYCAKYTYPYTPYSWWYDYWGQGTQVTVSS,low polyreactivity
14,QVQLVESGGGLVQAAGSVRLSCAASGITFTQYAMGRYRHAPGKESECVAGITFSGSSTYYADSVKGRFTISRDNSKNTVYLQMNSLKPEDTAVYYCAAESWYKYIYGYPRLFDYWGQATQVTVSS,low polyreactivity
15,QVQLVESGGGLVQAARTLRISCAASGYIFQYNSMRWYRPAPGKERELVAPSRYRGTSTYYADSVKGRFTISRDNAKNTDYSQMNRLKPEDTAVYYCAADSVQGRGFFGYGYWGQGTHVTVSS,high polyreactivity
16,QVQLVESGGGLVQAEGSLRLSCAASGIIFFHNAMGWYRQAPGKERELVATISRSGGSTYYADSVKGRFTISRDNAKNTVYLQMNSLKPEDTAVYYCAARQSIFYSWTGVEYYYWGQGTQVTVSS,low polyreactivity
17,QVQLVESGGGLVQAEGSLRLSCAASGSTLLYAMGWYRQAPGKERELVAAISIGDSTNYADSVKGRFTISRDNAKNTVYLQMNSLKPEDTAVYYCNADQGSNYYWGQGTQVTVSS,low polyreactivity
18,QVQLVESGGGLVQAGASHRLSCAASGRIFGGYAMGSDRQAPGKERELVAAISSRGGSTYYADSVKGRFTISRDNAKNTVYLLMNSLKPEETAVYYCAADGRVKGWGQGTQVTVSS,high polyreactivity
19,QVQLVESGGGLVQAGASLRLICDASGSIFPYNAMGWYRQAPGKERELVAVITSSGGSTYYADSVKGRFTISRDNAKNTVYLQLNSLKPEDTAVYYCAVLNHRVDSVLTRYYYWGQGTQVTVSS,low polyreactivity
20,QVQLVESGGGLVQAGASLRLSCAASASTFKGNAMGWYRQAPGKERELVAAINRSGTSTYYADSVKGRFTISRDNAKNSVYLQMNSLKPEDTAVYYCAKNYFGHRFDYWGQGTQVTVSS,high polyreactivity
21,QVQLVESGGGLVQAGASLRLSCAASGFILYRYAMGWYRQAPGKERELVAAISRRGGSTYYADSVKGRFTISRDNAKNTVYLQMNSLKPEDTAVYYCAADARYTRYDYWGQGTQVTVSS,high polyreactivity
